# B1: ATP synthase mitochondrial F1 complex assembly factor 2 (Homo sapiens), Q8N5M1 (parent)
# chain: MWRSCLRLRDGGRRLLNRPAGGPSASMSPGPTIPSPARAYAPPTERKRFYQNVSITQGEGGFEINLDHRKLKTPQAKLFTVPSEALAIAVATEWDSQQDTIKYYTMHLTTLCNTSLDNPTQRNKDQLIRAAVKFLDTDTICYRVEEPETLVELQRNEWDPIIEWAEKRYGVEISSSTSIMGPSIPAKTREVLVSHLASYNTWALQGIEFVAAQLKSMVLTLGLIDLRLTVEQAVLLSRLEEEYQIQKWGNIEWAHDYELQELRARTAAGTLFIHLCSESTTVKHKLLKE
# partner: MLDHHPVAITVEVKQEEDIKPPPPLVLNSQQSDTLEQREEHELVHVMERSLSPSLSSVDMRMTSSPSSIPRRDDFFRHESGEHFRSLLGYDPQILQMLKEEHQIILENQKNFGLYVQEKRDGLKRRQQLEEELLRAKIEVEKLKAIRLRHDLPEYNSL
# B2: Regulator of G-protein signaling 2 (Homo sapiens), P41220 (parent)
# chain: MQSAMFLAVQHDCRPMDKSAGSGHKSEEKREKMKRTLLKDWKTRLSYFLQNSSTPGKPKTGKKSKQQAFIKPSPEEAQLWSEAFDELLASKYGLAAFRAFLKSEFCEENIEFWLACEDFKKTKSPQKLSSKARKIYTDFIEKEAPKEINIDFQTKTLIAQNIQEATSGCFTTAQKRVYSLMENNSYPRFLESEFYQDLCKKPQITTEPHAT
# B3: EGF-containing fibulin-like extracellular matrix protein 1 (Homo sapiens), Q12805 (parent)
# chain: MLKALFLTMLTLALVKSQDTEETITYTQCTDGYEWDPVRQQCKDIDECDIVPDACKGGMKCVNHYGGYLCLPKTAQIIVNNEQPQQETQPAEGTSGATTGVVAASSMATSGVLPGGGFVASAAAVAGPEMQTGRNNFVIRRNPADPQRIPSNPSHRIQCAAGYEQSEHNVCQDIDECTAGTHNCRADQVCINLRGSFACQCPPGYQKRGEQCVDIDECTIPPYCHQRCVNTPGSFYCQCSPGFQLAANNYTCVDINECDASNQCAQQCYNILGSFICQCNQGYELSSDRLNCEDIDECRTSSYLCQYQCVNEPGKFSCMCPQGYQVVRSRTCQDINECETTNECREDEMCWNYHGGFRCYPRNPCQDPYILTPENRCVCPVSNAMCRELPQSIVYKYMSIRSDRSVPSDIFQIQATTIYANTINTFRIKSGNENGEFYLRQTSPVSAMLVLVKSLSGPREHIVDLEMLTVSSIGTFRTSSVLRLTIIVGPFSF
# partner: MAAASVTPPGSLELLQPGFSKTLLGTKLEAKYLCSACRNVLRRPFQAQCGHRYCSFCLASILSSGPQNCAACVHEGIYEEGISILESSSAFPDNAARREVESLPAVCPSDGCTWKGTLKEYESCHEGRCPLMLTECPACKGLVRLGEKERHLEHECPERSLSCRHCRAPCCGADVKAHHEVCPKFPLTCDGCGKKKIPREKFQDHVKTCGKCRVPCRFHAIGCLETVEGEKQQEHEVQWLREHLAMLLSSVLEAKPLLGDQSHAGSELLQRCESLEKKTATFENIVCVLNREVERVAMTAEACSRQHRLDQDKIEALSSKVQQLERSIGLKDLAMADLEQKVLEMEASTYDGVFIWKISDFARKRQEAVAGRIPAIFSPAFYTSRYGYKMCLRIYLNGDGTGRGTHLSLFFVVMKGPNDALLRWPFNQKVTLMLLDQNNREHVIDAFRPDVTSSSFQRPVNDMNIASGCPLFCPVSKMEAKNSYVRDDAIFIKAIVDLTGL
# B4: EF-hand domain-containing protein 1 (Homo sapiens), Q5JVL4 (parent)
# chain: MVSNPVHGLPFLPGTSFKDSTKTAFHRSQTLSYRNGYAIVRRPTVGIGGDRLQFNQLSQAELDELASKAPVLTYGQPKQAPPADFIPAHVAFDKKVLKFDAYFQEDVPMSTEEQYRIRQVNIYYYLEDDSMSVIEPVVENSGILQGKLIKRQRLAKNDRGDHYHWKDLNRGINITIYGKTFRVVDCDQFTQVFLESQGIELNPPEKMALDPYTELRKQPLRKYVTPSDFDQLKQFLTFDKQVLRFYAIWDDTDSMYGECRTYIIHYYLMDDTVEIREVHERNDGRDPFPLLMNRQRVPKVLVENAKNFPQCVLEISDQEVLEWYTAKDFIVGKSLTILGRTFFIYDCDPFTRRYYKEKFGITDLPRIDVSKREPPPVKQELPPYNGFGLVEDSAQNCFALIPKAPKKDVIKMLVNDNKVLRYLAVLESPIPEDKDRRFVFSYFLATDMISIFEPPVRNSGIIGGKYLGRTKVVKPYSTVDNPVYYGPSDFFIGAVIEVFGHRFIILDTDEYVLKYMESNAAQYSPEALASIQNHVRKREAPAPEAESKQTEKDPGVQELEALIDTIQKQLKDHSCKDNIREAFQIYDKEASGYVDRDMFFKICESLNVPVDDSLVKELIRMCSHGEGKINYYNFVRAFSN
# partner: B3 partner
# B5: Prelamin-A/C (Homo sapiens), P02545-2 (parent)
# chain: METPSQRRATRSGAQASSTPLSPTRITRLQEKEDLQELNDRLAVYIDRVRSLETENAGLRLRITESEEVVSREVSGIKAAYEAELGDARKTLDSVAKERARLQLELSKVREEFKELKARNTKKEGDLIAAQARLKDLEALLNSKEAALSTALSEKRTLEGELHDLRGQVAKLEAALGEAKKQLQDEMLRRVDAENRLQTMKEELDFQKNIYSEELRETKRRHETRLVEIDNGKQREFESRLADALQELRAQHEDQVEQYKKELEKTYSAKLDNARQSAERNSNLVGAAHEELQQSRIRIDSLSAQLSQLQKQLAAKEAKLRDLEDSLARERDTSRRLLAEKEREMAEMRARMQQQLDEYQELLDIKLALDMEIHAYRKLLEGEEERLRLSPSPTSQRSRGRASSHSSQTQGGGSVTKKRKLESTESRSSFSQHARTSGRVAVEEVDEEGKFVRLRNKSNEDQSMGNWQIKRQNGDDPLLTYRFPPKFTLKAGQVVTIWAAGAGATHSPPTDLVWKAQNTWGCGNSLRTALINSTGEEVAMRKLVRSVTVVEDDEDEDGDDLLHHHHVSGSRR
# Variants of: B1
# Details: with FSBP
row,Variant,effect of a mutation on the interaction
1,W94R,disrupting interaction strength

# Variants of: B2
# Details: with MTUS2, Q5JR59-3
# MTUS2, Q5JR59-3, sequence (Q5JR59 other isoform, or with tags, fused parts or gaps): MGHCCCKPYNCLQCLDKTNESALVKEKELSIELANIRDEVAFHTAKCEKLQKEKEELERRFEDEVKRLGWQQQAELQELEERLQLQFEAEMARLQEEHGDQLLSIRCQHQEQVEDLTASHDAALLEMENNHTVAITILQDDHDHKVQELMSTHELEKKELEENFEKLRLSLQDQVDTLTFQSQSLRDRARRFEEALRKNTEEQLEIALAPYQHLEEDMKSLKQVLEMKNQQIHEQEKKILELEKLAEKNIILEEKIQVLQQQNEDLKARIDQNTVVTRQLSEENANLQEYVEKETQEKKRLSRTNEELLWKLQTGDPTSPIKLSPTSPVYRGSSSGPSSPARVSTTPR
row,Variant,effect of a mutation on the interaction
1,R44H,with no effect
2,Q2L,with no effect
3,Q2R,with no effect

# Variants of: B3
# Details: with traf2_human TRAF2, Q12933
row,Variant,effect of a mutation on the interaction
1,R345W,with no effect

# Variants of: B4
# Details: with traf2_human TRAF2, Q12933
row,Variant,effect of a mutation on the interaction
1,T508R,with no effect
2,A394S,disrupting interaction strength
3,R159W,with no effect
4,P77T,disrupting interaction strength

# Continued, values first:
row,effect of a mutation on the interaction,Variant
1,with no effect,M448T
2,disrupting interaction strength,R221H

# Variants of: B5
# Details: with syce1_human SYCE1, Q8N0S2
# syce1_human SYCE1, Q8N0S2, sequence (Q8N0S2 whole entry): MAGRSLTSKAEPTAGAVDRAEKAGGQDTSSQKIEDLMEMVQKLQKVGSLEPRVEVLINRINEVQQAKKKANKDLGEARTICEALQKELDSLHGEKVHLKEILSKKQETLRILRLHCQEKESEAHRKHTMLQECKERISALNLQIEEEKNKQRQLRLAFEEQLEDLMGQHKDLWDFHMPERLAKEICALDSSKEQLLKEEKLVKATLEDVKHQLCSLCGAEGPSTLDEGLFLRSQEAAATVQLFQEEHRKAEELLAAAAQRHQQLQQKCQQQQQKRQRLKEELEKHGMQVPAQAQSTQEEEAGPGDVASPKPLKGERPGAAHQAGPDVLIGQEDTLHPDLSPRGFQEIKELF
row,Variant,effect of a mutation on the interaction
1,R60G,disrupting interaction strength
2,L162P,disrupting interaction strength
3,R377L,disrupting interaction strength

# Source: IntAct's records for PubMed 25910212
